Data taken from patent US20250222136A1, “GENE EDITING SYSTEM FOR TREATING USHER SYNDROME” (GenKOre, Inc., priority 2022, published 2025).

B1: MS3-3/MS4-3: MF-based engineered sgRNA, SEQ ID NO: 347 (nucleic acid)
guide: ACCGCUUCACCAAAAGCUGUCCCUUAGGGGAUUAGAACUUGAGUGAAGGUGGGCUGCUUGCAUCAGCCUAAUGUCGAGAAGUGCUUUCUUCGGAAAGUAACCCUCGAAACAAAGAAAGGAAUGCAACNNNNNNNNNNNNNNNNNNNN
modifications: Mature form sgRNA with modification of MS3-3/MS4-3; misc_feature 128..147 n is a, c, g or u
B2: Canonical sgRNA: canonical (wild-type, full length) single guide RNA for Cas12f1, SEQ ID NO: 177 (nucleic acid)
guide: CUUCACUGAUAAAGUGGAGAACCGCUUCACCAAAAGCUGUCCCUUAGGGGAUUAGAACUUGAGUGAAGGUGGGCUGCUUGCAUCAGCCUAAUGUCGAGAAGUGCUUUCUUCGGAAAGUAACCCUCGAAACAAAUUCAUUUUUCCUCUCCAAUUCUGCACAAGAAAGUUGCAGAACCCGAAUAGACGAAUGAAGGAAUGCAACNNNNNNNNNNNNNNNNNNNN
modifications: Canonical sgRNA for Cas12f1; misc_feature 203..222 n is a, c, g or u

Experiments:
[1] = tested on: Target-2 (SEQ ID NO: 359), human endogenous DNA target site; experiment: Indel efficiency of CWCas12f1 gene editing system with engineered gRNAs, target sequence 2; assay type: cell-based
Protocol: (§1) To this end, each of the modification site MS3 to MS5 in the canonical sgRNA was further subdivided into three sections (see FIG. 2A). By combining one or more of these modifications, engineered gRNAs (see Table 10 in Example 1.2.1) were produced, and the indel activity for each of them was tested. As target sequences for comparing the indel efficiency, two types of human endogenous DNA target sites comprising the PAM sequence recognized as the cleavage site by the CWCas12f1 protein were identified and used, and the specific nucleotide sequences are provided in Table 12 below.
(§2) Next, to obtain a highly efficient engineered single guide RNA for the CWCas12f1 protein, 5′-[…]uuagGGGAUUA […]gaaaGAAUGAAGGAAUGCAA […]-3′ (SEQ ID NO: 337), which is a mature form (hereinafter referred to as ‘MF’) sgRNA, and engineered gRNAs having partial modifications in the nucleotide sequence of the MF sgRNA were produced (see Table 11), and the indel efficiency of the CWCas12f1 gene editing system caused by them was measured.
(§3) Meanwhile, the comparative experiment of indel efficiency of the engineered Cas12f1 proteins in Examples 1.2.2 and 1.2.3 was performed as follows.
(§4) One day before transfection, HEK293T cells, which had been grown in 24-well plates to 80-90% confluency (based on 100φ dishes), were diluted 1/100 and passaged to prepare a volume of 500 μl. A total of 2 μg of DNA (vector+sgRNA transcription cassette targeting DY10) was used per transfection well. The experiment was repeated twice for each group. A transfection mixture was prepared which contains 1.5 μg of plasmid encoding the wild-type Cas12f1 or the engineered Cas12f1, 0.5 μg of the sgRNA transcription cassette, 200 μl of DMEM (excluding FBS and antibiotics), and 6 μl of FuGENE (Promega) reagent.
(§5) DNA and DMEM containing FuGENE reagent were mixed and vortexed, and then incubated for 15 minutes. 200 μl of the thus prepared transfection mixture was used to treat the cells prepared in a 24-well plate, and incubated at 37° C. […]
(§6) Indel frequency was calculated using MAUND provided at ┌https://github.com/ibs-cge/maund┘.

[2] = tested on: Target-1 (SEQ ID NO: 358), human endogenous DNA target site; experiment: Indel efficiency of CWCas12f1 gene editing system with engineered gRNAs, target sequence 1; assay type: cell-based
Protocol: as §1, §2, §3, §4, §5, §6

Molecule | indel efficiency ([1]; CWCas12f1, Target-2, MF-based gRNA with U-rich tail (U4AU4) added to the 3′-end (MS2), FIG. 4D) | indel efficiency ([1]; CWCas12f1, Target-2, gRNAs engineered from mature form (MF) sgRNA, no U-rich tail, FIG. 4C) | indel efficiency ([2]; CWCas12f1, Target-1, MF-based gRNA with U-rich tail (U4AU4) added to the 3′-end (MS2), FIG. 4B) | indel efficiency ([2]; CWCas12f1, Target-1, gRNAs engineered from mature form (MF) sgRNA, no U-rich tail, FIG. 4A) | indel efficiency ([1]; CWCas12f1 protein, Target-2 (SEQ ID NO: 359), gRNAs engineered from canonical sgRNA, FIG. 3B) | indel efficiency ([2]; CWCas12f1 protein, Target-1 (SEQ ID NO: 358), gRNAs engineered from canonical sgRNA, FIG. 3A)
B1 | about 50% | about 20% | about 60% | about 40% |  | 
B2 |  |  |  |  | did not cause cleavage of the target strand | did not cause cleavage of the target strand
